Assay results published in paper PMC12416549 (2024).
Positions count from the first letter of the chain named. Names may count otherwise. Each block holds one binder with its values, some of them ahead of it.

Biological target: T1, TNFR1 (Homo sapiens, UniProt P19438)
T1 chain: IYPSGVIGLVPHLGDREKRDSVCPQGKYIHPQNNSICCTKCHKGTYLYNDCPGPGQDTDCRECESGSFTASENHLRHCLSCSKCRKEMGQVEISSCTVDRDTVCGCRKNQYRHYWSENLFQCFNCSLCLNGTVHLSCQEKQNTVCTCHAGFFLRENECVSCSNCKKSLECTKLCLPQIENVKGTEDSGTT
Test: yeast display SC50

B1: A28R (designed binder)
chain: MTLQELLREEALRRAEAEAFRYALELLREKFPEQKEYLLDLAEEIESQIRSLSGVDVEDVRKFLDKEWAWVKELLAEHPAELAEVEAARAARLAELRAEVEAKVAA
apparent Kd (screen): 12.5 nM

B4: F31N (designed binder)
chain: B1 chain with R28A, F31N
apparent Kd (screen): 0.593 nM

B5: I45R (designed binder)
chain: B1 chain with R28A, I45R
apparent Kd (screen): 11.4 nM

B6: E44L (designed binder)
chain: B1 chain with R28A, E44L
apparent Kd (screen): 13.8 nM

B8: L3H (designed binder)
chain: B1 chain with L3H, R28A
apparent Kd (screen): 2.25 nM

B9: L7W (designed binder)
chain: B1 chain with L7W, R28A
apparent Kd (screen): 24.4 nM

B10: L3S (designed binder)
chain: B1 chain with L3S, R28A
apparent Kd (screen): 15.2 nM

B12: K66M (designed binder)
chain: B1 chain with R28A, K66M
apparent Kd (screen): 0.593 nM

B13: A69P (designed binder)
chain: B1 chain with R28A, A69P
apparent Kd (screen): 16.7 nM

B14: K35Q (designed binder)
chain: B1 chain with R28A, K35Q
apparent Kd (screen): 0.718 nM

B15: L52I (designed binder)
chain: B1 chain with R28A, L52I
apparent Kd (screen): 0.539 nM

B16: D59H (designed binder)
chain: B1 chain with R28A, D59H
apparent Kd (screen): 0.869 nM

B17: E33K (designed binder)
chain: B1 chain with R28A, E33K
apparent Kd (screen): 1.05 nM

B18: R14F (designed binder)
chain: B1 chain with R14F, R28A
apparent Kd (screen): 0.653 nM

B19: E29T (designed binder)
chain: B1 chain with R28A, E29T
apparent Kd (screen): 0.653 nM

B21: F20W (designed binder)
chain: B1 chain with F20W, R28A
apparent Kd (screen): 4.83 nM

B23: E58V (designed binder)
chain: B1 chain with R28A, E58V
apparent Kd (screen): 0.49 nM

B25: E16R (designed binder)
chain: B1 chain with E16R, R28A
apparent Kd (screen): 2.05 nM

B26: I45M (designed binder)
chain: B1 chain with R28A, I45M
apparent Kd (screen): 12.5 nM

B27: L12A (designed binder)
chain: B1 chain with L12A, R28A
apparent Kd (screen): 0.79 nM

B29: D56K (designed binder)
chain: B1 chain with R28A, D56K
apparent Kd (screen): 2.25 nM

B30: R61C (designed binder)
chain: B1 chain with R28A, R61C
apparent Kd (screen): 0.956 nM

B32: F63H (designed binder)
chain: B1 chain with R28A, F63H
apparent Kd (screen): 6.43 nM

B33: E46L (designed binder)
chain: B1 chain with R28A, E46L
apparent Kd (screen): 0.539 nM

B35: L38G (designed binder)
chain: B1 chain with R28A, L38G
apparent Kd (screen): 24.4 nM

B38: S53C (designed binder)
chain: B1 chain with R28A, S53C
apparent Kd (screen): 24.4 nM

B39: E43P (designed binder)
chain: B1 chain with R28A, E43P
apparent Kd (screen): 1.16 nM

B41: Y22I (designed binder)
chain: B1 chain with Y22I, R28A
apparent Kd (screen): 0.956 nM

B42: Q48I (designed binder)
chain: B1 chain with R28A, Q48I
apparent Kd (screen): 5.84 nM

Second part, the binder after the results:

apparent Kd (screen): 1.05 nM
B2: A69Y (designed binder)
chain: B1 chain with R28A, A69Y

apparent Kd (screen): 1.86 nM
B3: L82R (designed binder)
chain: B1 chain with R28A, L82R

apparent Kd (screen): 0.446 nM
B7: E81Y (designed binder)
chain: B1 chain with R28A, E81Y

apparent Kd (screen): 0.79 nM
B11: A88G (designed binder)
chain: B1 chain with R28A, A88G

apparent Kd (screen): 0.79 nM
B20: R89L (designed binder)
chain: B1 chain with R28A, R89L

apparent Kd (screen): 0.869 nM
B22: A87I (designed binder)
chain: B1 chain with R28A, A87I

apparent Kd (screen): 0.446 nM
B24: H78W (designed binder)
chain: B1 chain with R28A, H78W

apparent Kd (screen): 0.539 nM
B28: P79D (designed binder)
chain: B1 chain with R28A, P79D

apparent Kd (screen): 0.653 nM
B31: A88C (designed binder)
chain: B1 chain with R28A, A88C

apparent Kd (screen): 0.79 nM
B34: A106E (designed binder)
chain: B1 chain with R28A, A106E

apparent Kd (screen): 0.446 nM
B36: A87R (designed binder)
chain: B1 chain with R28A, A87R

apparent Kd (screen): 0.718 nM
B37: A105R (designed binder)
chain: B1 chain with R28A, A105R

apparent Kd (screen): 0.593 nM
B40: E95R (designed binder)
chain: B1 chain with R28A, E95R

apparent Kd (screen): 0.593 nM
B43: V71L (designed binder)
chain: B1 chain with R28A, V71L
